The source of these data is paper PMC11654684, “The nucleocapsid architecture and structural atlas of the prototype baculovirus define the hallmarks of a new viral realm” (Science Advances, 2024).

The data set concerns the molecule itself. The data set can be described thus: cryo-EM structure; intact AcMNPV budded virions purified from Sf9 culture, TE buffer (50 mM Tris, 0.5 mM EDTA, pH 8.7); helical reconstruction (C14, 4.2 Å) and localized reconstruction of four neighbouring VP39 dimers of the tube (3.1 Å).

B1: major capsid protein (MCP) (natural protein)
chain: MALVPVGMAPRQMRVNRCIFASIVSFDACITYKSPCSPDAYHDDGWFICNNHLIKRFKMSKMVLPIFDEDDNQFKMTIARHLVGNKERGIKRILIPSATNYQDVFNLNSMMQAEQLIFHLIYNNENAVNTICDNLKYTEGFTSNTQRVIHSVYATTKSILDTTNPNTFCSRVSRDELRFFDVTNARALRGGAGDQLFNNYSGFLQNLIRRAVAPEYLQIDTEELRFRNCATCIIDETGLVASVPDGPELYNPIRSSDIMRSQPNRLQIRNVLKFEGDTRELDRTLSGYEEYPTYVPLFLGYQIINSENNFLRNDFIPRANPNATLGGGAVAGPAPGVAGEAGGGIAV
notes: Major capsid protein VP39 (AC89) of Autographa californica multiple nucleopolyhedrovirus, as it stands in the budded virion; the model comprises Val15 to Asn320 (loop Asp27 to Ser34 built only in some subunits); the last 30 residues are not visible; Native protein in the nucleocapsid of intact budded virions; contains a CCCH zinc finger; also called VP39; AC89; source: AcMNPV budded virions …
Turning to B1, the “stoichiometry N” value was found to be 2.

The stoichiometry N is the number of molecules, sites or subunits per partner or assembly.
